{"source": "patent US20030235860A1", "about": "“Interactions between AR, ER, TR2, and TR4” (priority 1999, published 2003)", "molecules": {"B1": {"name": "PR: progesterone receptor (protein)", "chain": "MTELKAKGPRAPHVAGGPPSPEVGSPLLCRPAAGPFPGSQTSDTLPEVSAIPISLDGLLFPRPCQGQDPSDEKTQDQQSLSDVEGAYSRAEATRGAGGSSSSPPEKDSGLLDSVLDTLLAPSGPGQSQPSPPACEVTSSWCLFGPELPEDPPAAPATQRVLSPLMSRSGCKVGDSSGTAAAHKVLPRGLSPARQLLLPASESPHWSGAPVKPSPQAAAVEVEEEDGSESEESAGPLLKGKPRALGGAAAGGGAAAVPPGAAAGGVALVPKEDSRFSAPRVALVEQDAPMAPGRSPLATTVMDFIHVPILPLNHALLAARTRQLLEDESYDGGAGAASAFAPPRSSPCASSTPVAVGDFPDCAYPPDAEPKDDAYPLYSDFQPPALKIKEEEEGAEASARSPRSYLVAGANPAAFPDFPLGPPPPLPPRATPSRPGEAAVTAAPASASVSSASSSGSTLECILYKAEGAPPQQGPFAPPPCKAPGASGCLLPRDGLPSTSASAAAAGAAPALYPALGLNGLPQLGYQAAVLKEGLPQVYPPYLNYLRPDSEASQSPQYSFESLPQKICLICGDEASGCHYGVLTCGSCKVFFKRAMEGQHNYLCAGRNDCIVDKIRRKNCPACRLRKCCQAGMVLGGRKFKKFNKVRVVRALDAVALPQPVGVPNESQALSQRFTFSPGQDIQLIPPLINLLMSIEPDVIYAGHDNTKPDTSSSLLTSLNQLGERQLLSVVKWSKSLPGFRNLHIDDQITLIQYSWMSLMVFGLGWRSYKHVSGQMLYFAPDLILNEQRMKESSFYSLCLTMWQIPQEFVKLQVSQEEFLCMKVLLLLNTIPLEGLRSQTQFEEMRSSYIRELIKAIGLRQKGVVSSSQRFYQLTKLLDNLHDLVKQLHLYCLNTFIQSRALSVEFPEMMSEVIAAQLPKILAGMVKPLLFHKK"}, "B2": {"name": "estrogen receptor (ER), full-length (receptor)", "chain": "MTMTLHTKASGMALLHQIQGNELEPLNRPQLKIPLERPLGEVYLDSSKPAVYNYPEGAAYEFNAAAAANAQVYGQTGLPYGPGSEAAAFGSNGLGGFPPLNSVSPSPLMLLHPPPQLSPFLQPHGQQVPYYLENEPSGYTVREAGPPAFYRPNSDNRRQGGRERLASTNDKGSMAMESAKETRYCAVCNDYASGYHYGVWSCEGCKAFFKRSIQGHNDYMCPATNQCTIDKNRRKSCQACRLRKCYEVGMMKGGIRKDRRGGRMLKHKRQRDDGEGRGEVGSAGDMRAANLWPSPLMIKRSKKNSLALSLTADQMVSALLDAEPPILYSEYDPTRPFSEASMMGLLTNLADRELVHMINWAKRVPGFVDLTLHDQVHLLECAWLEILMIGLVWRSMEHPVKLLFAPNLLLDRNQGKCVEGMVEIFDMLLATSSRFRMMNLQGEEFVCLKSIILLNSGVYTFLSSTLKSLEEKDHIHRVLDKITDTLIHLMAKAGLTLQQQHQRLAQLLLILSHIRHMSNKGMEHLYSMKCKNVVPLYDLLLEMLDAHRLHAPTSRGGASVEETDQSHLATAGSTSSHSLQKYYITGEAEGFPATV", "notes": "35S-labeled when in vitro translated for the pull-downs; endogenous in MCF7 cells for the co-immunoprecipitation; also called ERα; pSG5-ER"}}, "key": {"[1]": {"target": "T1, interaction between AR and TR4 (Homo sapiens, UniProt P10275, DEL79-80/DUP473-473)", "T1 construct": "A full-length AR(pSG5AR) was co-transfected with GAL4-TR4E; expressed in transfected cells; host or cells: H1299", "T1 sequence (P10275 with tags, fused parts or gaps DEL79-80/DUP473-473)": "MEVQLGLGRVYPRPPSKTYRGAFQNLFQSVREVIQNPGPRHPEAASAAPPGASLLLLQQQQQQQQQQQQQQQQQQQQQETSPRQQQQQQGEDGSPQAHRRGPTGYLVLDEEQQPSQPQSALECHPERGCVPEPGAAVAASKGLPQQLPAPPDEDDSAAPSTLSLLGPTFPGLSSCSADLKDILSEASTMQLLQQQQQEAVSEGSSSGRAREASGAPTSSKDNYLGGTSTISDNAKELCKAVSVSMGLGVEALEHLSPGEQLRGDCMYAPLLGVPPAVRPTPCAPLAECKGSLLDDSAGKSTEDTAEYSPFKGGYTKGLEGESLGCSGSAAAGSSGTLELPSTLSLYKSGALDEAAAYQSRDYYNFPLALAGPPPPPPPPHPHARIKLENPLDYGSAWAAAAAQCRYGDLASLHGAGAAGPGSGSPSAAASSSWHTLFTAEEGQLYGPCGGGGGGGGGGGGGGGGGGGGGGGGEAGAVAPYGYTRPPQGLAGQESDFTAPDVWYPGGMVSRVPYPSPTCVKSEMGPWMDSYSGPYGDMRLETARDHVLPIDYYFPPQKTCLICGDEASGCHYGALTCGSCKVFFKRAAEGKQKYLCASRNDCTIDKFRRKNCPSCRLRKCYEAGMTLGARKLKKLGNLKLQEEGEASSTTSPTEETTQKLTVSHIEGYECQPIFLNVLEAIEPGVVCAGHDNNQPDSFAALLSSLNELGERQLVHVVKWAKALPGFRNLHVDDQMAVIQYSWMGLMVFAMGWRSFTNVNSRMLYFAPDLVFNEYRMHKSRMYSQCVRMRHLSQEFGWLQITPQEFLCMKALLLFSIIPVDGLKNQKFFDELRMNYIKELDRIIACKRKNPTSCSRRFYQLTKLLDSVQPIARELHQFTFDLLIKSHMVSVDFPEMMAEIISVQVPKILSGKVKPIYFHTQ", "assay": "Modified mammalian one-hybrid system pSG5AR / GAL4-TR4E", "assay_type": "cell-based", "settings": "1 μM of anti androgen", "experimental": "A full-length AR(pSG5AR) was co-transfected with GAL4-TR4E and PG5-Luc reporter in H1299 cells (pSG5AR, pSG5GR, pSG5PR, disclosed in Yeh et al., Proc Natl. Acad. Sci., 93:5517-5521 (1996), which is herein incorporated by reference at least for material related to plasmids and assays, including sequence).\nTransfection was performed by a modified calcium phosphate precipitation method. The pRL-TK plasmid was co-transfected for normalization of transfection efficiency."}, "[2]": {"target": "T2, TR4 (Homo sapiens, UniProt P49116)", "T2 construct": "full-length AR and TR4 in eukaryotic expression vectors (pSG5AR and pCMXTR4) were co-transfected; expressed in transfected cells; host or cells: H1299, HepG2", "T2 sequence (P49116 1-615 isoform P49116-2 N175S/W419R/A428G/K503N/L504W/A613V)": "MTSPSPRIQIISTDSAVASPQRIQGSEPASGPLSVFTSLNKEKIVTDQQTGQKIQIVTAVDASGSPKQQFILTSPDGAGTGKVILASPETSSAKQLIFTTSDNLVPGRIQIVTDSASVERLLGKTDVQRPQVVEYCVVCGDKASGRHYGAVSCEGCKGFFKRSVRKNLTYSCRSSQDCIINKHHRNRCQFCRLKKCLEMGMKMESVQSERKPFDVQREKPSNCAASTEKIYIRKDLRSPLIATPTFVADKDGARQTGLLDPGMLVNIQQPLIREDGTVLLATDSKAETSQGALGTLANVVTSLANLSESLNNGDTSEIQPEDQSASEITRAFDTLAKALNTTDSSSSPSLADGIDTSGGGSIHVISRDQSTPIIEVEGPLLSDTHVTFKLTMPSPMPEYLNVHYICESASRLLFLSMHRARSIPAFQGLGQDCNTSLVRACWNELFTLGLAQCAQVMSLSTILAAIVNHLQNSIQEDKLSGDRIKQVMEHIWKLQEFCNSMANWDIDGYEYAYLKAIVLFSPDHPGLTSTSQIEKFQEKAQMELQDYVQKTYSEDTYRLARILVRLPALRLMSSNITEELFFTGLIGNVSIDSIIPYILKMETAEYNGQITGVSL", "assay": "TR4-mediated transactivation reporter assay", "assay_type": "cell-based", "settings": "H1299 cells; absence or presence of DHT", "experimental": "Cells were routinely maintained in DMEM with 10% heat-inactivated fetal bovine serum. The cells were transfected using a modified calcium phosphate precipitation method, Mizokami, & Chang, J: Biol. Chem. 269,25655-25659 (1994), or SuperFect (Qiagen). To normalize the transfection efficiency, the (3-galactosidase expression ver and pRL-TK were co-transfected in CAT assay and in Dual-luciferase reporter assay system (Promega), respectively.\nMore specifically, 500 ng of reporter plasmids were co-transfected(DR4-CAT and CNTFR-15-LUC) with 200 ng of pCMX-TR4 and increasing amounts of pCMV-AR (200, 600, and 1,200 ng), pSG5GR (1,200 ng), or pSG5 PR (1,200 ng) using the SuperFect transfection kit (Qiagen) (PCMV AR Mowszowicz et al., (1993) Molecular Endocrinology 7:861:869). […] Similar results were obtained when the DR4-TK-CAT reporter was replaced with DR1-CNTFR-15-LUC, another TR4 response element (FIG. 3A). Young, et al., J: Biol. Chem. 272,3109-3116 (1997).\nAnother TR4 potential target gene, which is located in the hepatitis B virus (HBV) enhancer II region (−34 to −7) containing a classic DR1 motif. Breidbart, et al., Pediatric Res. 34,300-302 (1993), was investigated. The reporter plasmid CpFL(4)-LUC, which contains the HBV core promoter (Cp) sequence located between −34 and −7 (nucleotide coordinates 1751 and 1778 derived from the Genbank database) was shown above in FIG. 3B. The arrows indicate the DRI motif in HBV core promoter. HepG2 cells were co-transfected with 1.5 μg CpFL(4)-LUC reporter and 0.5 μg pCMX-TR4, with increasing amounts of pCMV-AR (0.5, 2.5, and 5 μg) by modified calcium phosphate precipitation method. The relative reporter gene activities were compared to the CAT activities (or luciferase activities) with vector alone. To normalize the transfection efficiency, the β-galactosidase expression vector and pRL-TK were co-transfected in the CAT assay and in the Dual-luciferase reporter assay system (Promega), respectively."}, "[3]": {"target": "T3, TR2 (Homo sapiens, UniProt P13056)", "T3 sequence (P13056 1-603)": "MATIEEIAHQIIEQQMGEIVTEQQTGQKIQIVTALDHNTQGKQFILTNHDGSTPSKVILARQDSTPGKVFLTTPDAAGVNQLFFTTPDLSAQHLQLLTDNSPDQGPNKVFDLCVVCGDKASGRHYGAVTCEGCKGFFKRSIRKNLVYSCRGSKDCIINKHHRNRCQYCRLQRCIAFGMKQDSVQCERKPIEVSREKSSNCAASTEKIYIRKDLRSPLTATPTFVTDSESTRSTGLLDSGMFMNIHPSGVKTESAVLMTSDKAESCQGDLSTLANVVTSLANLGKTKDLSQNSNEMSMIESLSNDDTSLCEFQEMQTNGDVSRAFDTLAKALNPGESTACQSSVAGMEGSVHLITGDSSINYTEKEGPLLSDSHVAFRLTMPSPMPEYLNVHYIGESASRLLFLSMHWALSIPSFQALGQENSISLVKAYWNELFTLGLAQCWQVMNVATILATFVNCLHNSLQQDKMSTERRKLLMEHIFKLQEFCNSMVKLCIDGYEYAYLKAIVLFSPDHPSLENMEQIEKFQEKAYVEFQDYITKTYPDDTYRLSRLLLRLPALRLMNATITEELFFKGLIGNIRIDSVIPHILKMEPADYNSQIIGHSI", "assay": "TR2-mediated transactivation reporter assay", "assay_type": "cell-based", "settings": "H1299 cells; absence or presence of E2", "experimental": "Transfections and chloramphenicol acetyltransferase (CAT) assays were performed as described previously. Yeh, & Chang, Proc. Natl. Acad. Sci. 93, 5517-5521 (1996). Briefly, 4×10^5 cells were plated in 60-mm dishes and cultured for 24 h, and then the medium was changed to phenol red free DMEM with 5% charcoal-stripped FCS 2 h before transfection. The cells were co-transfected with TR2 and/or ER expression plasmids with 2 μg of TR2-TK-CAT reporter or 1 μg of ERE-CAT reporter gene plasmid, as indicated in the Figures, by using the calcium phosphate precipitation method. A β-gal actosidase expression plasmid, pCMV-β-gal, was transfected in all transfections as an internal control for normalizing transfection efficiency. The total amount of DNA was adjusted up to 10.5 μg with parent vectors, pSG5 or pCMV in each transcriptional activity assay. […] The cells were then harvested and whole cell extracts were used for CAT assay. The CAT activity was quantitated by Phosphorlmager (Molecular Dynamics). Data are presented as means±S.D. of at least three independent experiments.\nThe CAT reporter assay was used to study the potential consequence of the formation of heterodimers between the TR2 and ER. […] More specifically, H1299 cells were transiently cotransfected with 2 μg of DR4-TK-CAT reporter plasmid and 3 μg of TR2 expression plasmid together with increasing amounts of the ER expression vector. […] Cells were also transfected with internal control reporter plasmid, pCMV-β-gal, as an internal control for transfection efficiency. Luciferase activity was then analyzed following manufacturer's instructions (Promega). […] Similar results were obtained when the DR4-TK-CAT reporter with DR1-HBV-LUC were replaced, another TR2 response element (FIG. 7C).\nThis conclusion was further confirmed by using the chimera receptor, TR2-androgen receptor (AR) ARp-TR2, which was generated by swapping TR2 proximal box (P-box) with that found in the AR. […] Luciferase activity was then analyzed following manufacturer's instructions (Promega). […]"}, "[4]": {"target": "T4, TR4 orphan receptor (TR4), full-length (human, UniProt P49116 1-596)", "T4 construct": "Full-length TR4; 35S-labeled when in vitro translated, expressed from plasmids in the cell assays; also called pCMX-TR4; pCMV-TR4", "T4 sequence": "T2 sequence (P49116 1-615 isoform P49116-2 N175S/W419R/A428G/K503N/L504W/A613V)", "assay": "Table 4, summary of interactions tested; assay not given"}}, "data": [{"molecule": "CC1(C)C(=O)N(c2ccc(C#N)c(C(F)(F)F)c2)C(=O)N1CCCCO", "note": "[RU58841]", "values": [{"measurement": "Effect on DHT-enhanced interaction between AR and TR4", "setting": "[1]", "value": "abolish"}]}, {"molecule": "CC(C)(O)C(=O)Nc1ccc([N+](=O)[O-])c(C(F)(F)F)c1", "note": "[hydroxyflutamide]", "values": [{"measurement": "Effect on DHT-enhanced interaction between AR and TR4", "setting": "[1]", "value": "abolish"}]}, {"molecule": "GR: glucocorticoid receptor", "values": [{"measurement": "CAT activity induced by pCMXTR4 (DR4-TK-CAT; similar with DR1-CNTFR-I5-LUC)", "setting": "[2]", "value": "no suppressive effects"}, {"measurement": "CAT activity induced by pCMV-TR2 (DR4-TK-CAT; similar with DR1-HBV-LUC)", "setting": "[3]", "value": "no suppressive effect"}]}, {"molecule": "B1", "values": [{"measurement": "CAT activity induced by pCMXTR4 (DR4-TK-CAT; similar with DR1-CNTFR-I5-LUC)", "setting": "[2]", "value": "no suppressive effects"}, {"measurement": "CAT activity induced by pCMV-TR2 (DR4-TK-CAT; similar with DR1-HBV-LUC)", "setting": "[3]", "value": "no suppressive effect"}]}, {"molecule": "B2", "values": [{"measurement": "binding result", "setting": "[4]", "value": "binds"}]}]}
